Assay results taken from paper PMC9482650, “Quantitative fragmentomics allow affinity mapping of interactomes” (Nature Communications, 2022).
Substitutions are numbered along the chain they refer to.

Legend:
Test in all cases: holdup assay
Set-up in all cases: key: below the threshold = too weak to quantify, mostly under pKd 3.1 to 4
[1] = target: SNX27, Q96L92
[2] = target: SCRIB_3, Q14160
[3] = target: T1, DLG3_1, Q92796
T1 sequence (Q92796 125-227, limits assumed, looked up): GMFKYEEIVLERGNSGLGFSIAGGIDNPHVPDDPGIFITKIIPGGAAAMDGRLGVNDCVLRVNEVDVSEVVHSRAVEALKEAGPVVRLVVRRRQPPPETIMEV

[4] = target: LNX1_3, Q8TBB1
LNX1_3, Q8TBB1, sequence (Q8TBB1 500-596): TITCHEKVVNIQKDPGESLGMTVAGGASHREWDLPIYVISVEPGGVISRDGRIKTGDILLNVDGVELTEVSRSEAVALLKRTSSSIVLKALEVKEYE

[5] = target: T2, SNTB1, Q13884
T2 sequence (Q13884 107-205, limits assumed, looked up): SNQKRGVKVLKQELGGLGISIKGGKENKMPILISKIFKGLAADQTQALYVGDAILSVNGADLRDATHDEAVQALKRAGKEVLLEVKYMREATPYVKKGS

[6] = target: Inadl_6, Q8NI35
Inadl_6, Q8NI35, sequence (Q8NI35 1058-1167): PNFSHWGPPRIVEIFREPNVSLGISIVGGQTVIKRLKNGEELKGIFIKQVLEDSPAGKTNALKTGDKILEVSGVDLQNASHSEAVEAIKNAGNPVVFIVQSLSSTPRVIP

[7] = target: DLG4_1, P78352
DLG4_1, P78352, sequence (P78352 62-152): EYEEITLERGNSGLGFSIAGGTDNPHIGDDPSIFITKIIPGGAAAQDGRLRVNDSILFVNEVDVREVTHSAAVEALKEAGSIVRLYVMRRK

[8] = target: T3, PDZRN3_1, Q9UPQ7
T3 sequence (Q9UPQ7 244-349, limits assumed, looked up): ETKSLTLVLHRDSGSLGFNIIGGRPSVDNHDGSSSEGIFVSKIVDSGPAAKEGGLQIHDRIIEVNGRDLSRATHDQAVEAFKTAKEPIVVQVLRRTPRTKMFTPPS

[9] = target: T4, MPP7, Q5T2T1
T4 sequence (Q5T2T1 134-230, limits assumed, looked up): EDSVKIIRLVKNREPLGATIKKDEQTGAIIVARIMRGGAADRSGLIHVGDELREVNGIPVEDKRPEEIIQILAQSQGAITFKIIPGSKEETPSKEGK

[10] = target: T5, PTPN13_1, Q12923
T5 sequence (Q12923 1088-1188, limits assumed, looked up): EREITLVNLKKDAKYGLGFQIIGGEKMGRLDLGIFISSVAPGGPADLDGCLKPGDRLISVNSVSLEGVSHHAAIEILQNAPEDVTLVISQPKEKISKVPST

[11] = target: MAGI2_2, Q86UL8
MAGI2_2, Q86UL8, sequence (Q86UL8 410-522): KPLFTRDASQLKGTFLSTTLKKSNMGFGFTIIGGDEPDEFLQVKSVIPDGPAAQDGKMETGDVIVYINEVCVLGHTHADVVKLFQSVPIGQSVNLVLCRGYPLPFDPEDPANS

[12] = target: T6, RHPN1, Q8TCX5
T6 sequence (Q8TCX5 508-602, limits assumed, looked up): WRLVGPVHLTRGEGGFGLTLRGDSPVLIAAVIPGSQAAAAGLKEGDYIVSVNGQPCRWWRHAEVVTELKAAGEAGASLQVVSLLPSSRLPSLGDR

[13] = target: T7, LIN7B, Q9HAP6
T7 sequence (Q9HAP6 88-185, limits assumed, looked up): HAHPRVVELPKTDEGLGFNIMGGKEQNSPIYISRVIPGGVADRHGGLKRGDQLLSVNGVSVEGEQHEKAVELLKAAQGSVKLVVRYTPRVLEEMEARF

[14] = target: MAGI3_2, Q5TCQ9
MAGI3_2, Q5TCQ9, sequence (Q5TCQ9 398-503): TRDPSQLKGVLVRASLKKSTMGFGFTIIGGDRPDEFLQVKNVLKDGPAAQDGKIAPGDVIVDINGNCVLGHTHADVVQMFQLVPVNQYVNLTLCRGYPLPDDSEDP

[15] = target: T8, MPDZ_5, O75970
T8 sequence (O75970 695-796, limits assumed, looked up): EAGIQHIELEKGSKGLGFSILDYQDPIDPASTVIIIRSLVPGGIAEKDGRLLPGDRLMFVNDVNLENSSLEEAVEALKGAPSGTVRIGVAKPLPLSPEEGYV

[16] = target: T9, RAPGEF6, Q8TEU7
T9 sequence (Q8TEU7 525-625, limits assumed, looked up): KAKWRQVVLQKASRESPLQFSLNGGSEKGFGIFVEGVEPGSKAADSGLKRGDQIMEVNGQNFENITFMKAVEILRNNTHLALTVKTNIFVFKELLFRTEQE

[17] = target: FRMPD2_1, Q68DX3
FRMPD2_1, Q68DX3, sequence (Q68DX3 770-861): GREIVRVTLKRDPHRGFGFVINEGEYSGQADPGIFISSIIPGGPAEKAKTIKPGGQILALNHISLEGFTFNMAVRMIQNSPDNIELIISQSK

[18] = target: GORASP1, Q9BQQ3
GORASP1, Q9BQQ3, sequence (Q9BQQ3 1-208): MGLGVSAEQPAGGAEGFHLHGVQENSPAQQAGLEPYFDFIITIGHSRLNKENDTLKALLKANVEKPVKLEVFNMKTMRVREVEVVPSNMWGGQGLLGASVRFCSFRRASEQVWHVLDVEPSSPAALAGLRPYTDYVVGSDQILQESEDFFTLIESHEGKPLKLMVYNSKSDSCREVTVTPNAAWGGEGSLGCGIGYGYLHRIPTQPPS

[19] = target: MAGI1_1, Q96QZ7
MAGI1_1, Q96QZ7, sequence (Q96QZ7 1-106): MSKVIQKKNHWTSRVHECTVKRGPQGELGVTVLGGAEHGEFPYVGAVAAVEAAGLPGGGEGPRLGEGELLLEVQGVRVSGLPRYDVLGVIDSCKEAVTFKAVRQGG

[20] = target: T10, NHERF3_3, Q5T2W1
T10 sequence (Q5T2W1 238-333, limits assumed, looked up): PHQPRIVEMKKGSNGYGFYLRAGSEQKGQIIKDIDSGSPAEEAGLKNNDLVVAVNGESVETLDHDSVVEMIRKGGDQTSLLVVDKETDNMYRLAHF

[21] = target: T11, DFNB31_2, Q9P202
T11 sequence (Q9P202 274-371, limits assumed, looked up): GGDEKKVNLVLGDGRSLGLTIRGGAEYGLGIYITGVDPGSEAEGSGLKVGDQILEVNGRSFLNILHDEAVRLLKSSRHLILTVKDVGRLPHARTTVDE

[22] = target: NHERF4_1, Q86UT5-2
NHERF4_1, Q86UT5-2, sequence (Q86UT5 other isoform, or with tags, fused parts or gaps): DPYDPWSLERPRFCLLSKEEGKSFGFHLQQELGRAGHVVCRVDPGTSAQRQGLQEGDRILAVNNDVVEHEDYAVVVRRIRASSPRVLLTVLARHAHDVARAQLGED

[23] = target: T12, LIN7C, Q9NUP9
T12 sequence (Q9NUP9 88-185, limits assumed, looked up): T7 sequence (Q9HAP6 88-185, limits assumed, looked up) with A2S, D13E, V35I, V40I, Q65H, S79K, R89K, A96S

[24] = target: T13, TIAM2, Q8IVF5
T13 sequence (Q8IVF5 885-986, limits assumed, looked up): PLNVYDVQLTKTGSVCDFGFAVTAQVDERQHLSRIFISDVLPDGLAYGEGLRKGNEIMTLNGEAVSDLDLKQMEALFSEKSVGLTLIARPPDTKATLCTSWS

[25] = plain residues with an end cap or a label only (N-terminal biotin on a linker: ado-ado)
[26] = plain residues with an end cap or a label only (N-terminal biotin on a linker: ttds)
[27] = plain residues with an end cap or a label only (N-terminal biotin on a linker: ahx)

SCRIB_3, Q14160, sequence (Q14160 999-1103): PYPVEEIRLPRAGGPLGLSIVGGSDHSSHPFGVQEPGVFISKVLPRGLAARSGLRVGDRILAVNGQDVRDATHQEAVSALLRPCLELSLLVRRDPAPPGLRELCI

## KSRVAFFEEL [NF2, P35240]
[1]; [25]
  pKd: 3.7
[2]; [25]
  pKd: 3.7
[3]; [25]
  pKd: 3.58
[4]; [25]
  pKd: 3.61
[5]; [25]
  pKd: 3.54
[6]; [25]
  pKd: 3.47
[7]; [25]
  pKd: 3.63
[8]; [25]
  pKd: 3.54

## SVWLRKETRV [CYSLTR2, Q9NS75]
[1]; [26]
  pKd: 4.95
[9]; [26]
  pKd: below the threshold
[10]; [26]
  pKd: 3.43
[2]; [26]
  pKd: 4.85
[11]; [26]
  pKd: 5.68
[12]; [26]
  pKd: 4.08
[13]; [26]
  pKd: 4.35
[3]; [26]
  pKd: 4.41
[14]; [26]
  pKd: 5.75
[4]; [26]
  pKd: 3.46
[15]; [26]
  pKd: 3.36
[16]; [26]
  pKd: 3.44
[5]; [26]
  pKd: 5.5
[17]; [26]
  pKd: 4.15
[18]; [26]
  pKd: 3.7
[6]; [26]
  pKd: below the threshold
[19]; [26]
  pKd: below the threshold
[7]; [26]
  pKd: 4.92
[8]; [26]
  pKd: 5.1
[20]; [26]
  pKd: 3.52
[21]; [26]
  pKd: 3.73
[22]; [26]
  pKd: below the threshold
[23]; [26]
  pKd: 5.03
[24]; [26]
  pKd: below the threshold

## HTHSYIETHV [CNKSR2, Q8WXI2]
[1]; [27]
  pKd: 5.7
[9]; [27]
  pKd: below the threshold
[10]; [27]
  pKd: below the threshold
[2]; [27]
  pKd: 5.11
[11]; [27]
  pKd: 4.37
[12]; [27]
  pKd: 5.21
[13]; [27]
  pKd: below the threshold
[3]; [27]
  pKd: 4.08
[14]; [27]
  pKd: 4.69
[4]; [27]
  pKd: below the threshold
[15]; [27]
  pKd: below the threshold
[16]; [27]
  pKd: below the threshold
[5]; [27]
  pKd: 4.6
[17]; [27]
  pKd: below the threshold
[18]; [27]
  pKd: below the threshold
[6]; [27]
  pKd: 4.22
[19]; [27]
  pKd: below the threshold
[7]; [27]
  pKd: 4.4
[8]; [27]
  pKd: 3.8
[20]; [27]
  pKd: below the threshold
[21]; [27]
  pKd: 3.76
[22]; [27]
  pKd: below the threshold
[23]; [27]
  pKd: 3.67
[24]; [27]
  pKd: 3.81

## ERKLSSESQV [LRP4, O75096]
[1]; [26]
  pKd: 4.75
[9]; [26]
  pKd: below the threshold
[10]; [26]
  pKd: below the threshold
[2]; [26]
  pKd: 3.93
[11]; [26]
  pKd: 4.79
[12]; [26]
  pKd: 3.96
[13]; [26]
  pKd: below the threshold
[3]; [26]
  pKd: 3.81
[14]; [26]
  pKd: 5.17
[4]; [26]
  pKd: below the threshold
[15]; [26]
  pKd: below the threshold
[16]; [26]
  pKd: below the threshold
[5]; [26]
  pKd: 4.05
[17]; [26]
  pKd: below the threshold
[18]; [26]
  pKd: below the threshold
[6]; [26]
  pKd: below the threshold
[19]; [26]
  pKd: below the threshold
[7]; [26]
  pKd: 4.17
[8]; [26]
  pKd: below the threshold
[20]; [26]
  pKd: below the threshold
[21]; [26]
  pKd: below the threshold
[22]; [26]
  pKd: below the threshold
[23]; [26]
  pKd: below the threshold
[24]; [26]
  pKd: below the threshold

## SRPQRTQTQV [HPV67-E6, A4U7F2]
[1]; [26]
  pKd: 3.98
[9]; [26]
  pKd: below the threshold
[10]; [26]
  pKd: below the threshold
[2]; [26]
  pKd: 3.93
[11]; [26]
  pKd: 5.32
[12]; [26]
  pKd: 3.84
[13]; [26]
  pKd: below the threshold
[3]; [26]
  pKd: 3.89
[14]; [26]
  pKd: 5.42
[4]; [26]
  pKd: below the threshold
[15]; [26]
  pKd: below the threshold
[16]; [26]
  pKd: below the threshold
[5]; [26]
  pKd: below the threshold
[17]; [26]
  pKd: 3.79
[18]; [26]
  pKd: below the threshold
[6]; [26]
  pKd: below the threshold
[19]; [26]
  pKd: below the threshold
[7]; [26]
  pKd: 4.58
[8]; [26]
  pKd: 3.76
[20]; [26]
  pKd: below the threshold
[21]; [26]
  pKd: below the threshold
[22]; [26]
  pKd: below the threshold
[23]; [26]
  pKd: below the threshold
[24]; [26]
  pKd: below the threshold

## RSLEEEESQL [GRASP, Q7Z6J2]
[1]; [26]
  pKd: 5.69
[9]; [26]
  pKd: below the threshold
[10]; [26]
  pKd: 3.63
[2]; [26]
  pKd: 4.23
[11]; [26]
  pKd: below the threshold
[12]; [26]
  pKd: 4.71
[13]; [26]
  pKd: 3.7
[3]; [26]
  pKd: 3.6
[14]; [26]
  pKd: 3.81
[4]; [26]
  pKd: below the threshold
[15]; [26]
  pKd: 3.53
[16]; [26]
  pKd: 3.56
[5]; [26]
  pKd: 3.89
[17]; [26]
  pKd: below the threshold
[18]; [26]
  pKd: 3.72
[6]; [26]
  pKd: 4.05
[19]; [26]
  pKd: below the threshold
[7]; [26]
  pKd: 3.63
[8]; [26]
  pKd: 4.24
[20]; [26]
  pKd: below the threshold
[21]; [26]
  pKd: 3.83
[22]; [26]
  pKd: 3.9
[23]; [26]
  pKd: 3.78
[24]; [26]
  pKd: below the threshold

## KRPEMTSSSV [MUC3B, MUC3A, Q02505;Q9H195]
[1]; [25]
  pKd: 5.03
[10]; [25]
  pKd: below the threshold
[3]; [25]
  pKd: below the threshold
[16]; [25]
  pKd: below the threshold
[17]; [25]
  pKd: below the threshold
[8]; [25]
  pKd: below the threshold
[23]; [25]
  pKd: below the threshold
